The assay concerns the target 70S ribosome (Escherichia coli MRE600), translating on an mRNA hairpin (Escherichia coli MRE600). In words: single-molecule fluorescence with optical tweezers.

The record followed here is publication PMC6779417.

Regarding “Cy3-labeled EF-G (S73C EF-G labeled with Cy3-monomaleimide) (from UniProt P0A6M8 1-704) (enzyme)”, the EF-G residence time on the ribosome before hairpin unwinding (tau unwinding) is 0.25 s.
